Tests used:
[1] = target: T1, recombinant human RON SEMA and PSI domains (human, UniProt Q04912 25-571); test: SPR, purified Ab captured on anti-human IgG Fc, 37 C
T1 construct: domain: SEMA+PSI; Commercial protein (R&D Systems); also called rhRON SEMA+PSI; hRON SEMA+PSI
Experimental: (§1) Goat anti-human IgG Fc (Jackson ImmunoResearch, Catalog No. 109-005-098) was immobilized on carboxymethylated dextran CM4 sensor chips (Biacore) by amine coupling (Biacore) using a standard coupling protocol according to the vendor's instructions. The analyses were performed at 37° C. using PBS (Invitrogen) containing 0.05% surfactant P20 (Biacore) as running buffer.
(§2) The antibodies were captured in individual flow cells at a flow rate of 60 μl/minute. Injection time was varied for each antibody to yield an Rₘₐₓ between 30 and 60 RU. Buffer or rhRON SEMA+PSI diluted in running buffer was injected sequentially over a reference surface (no antibody captured) and the active surface (antibody to be tested) for 300 seconds at 60 μl/minute. The dissociation phase was monitored for up to 1200 seconds. The surface was then regenerated with two 60 second injections of Glycine pH 2.25 (made from Glycine pH 2.0 (Biacore) and pH 2.5 (Biacore)) at 60 μl/minute. For the initial screening, only one or two concentrations of rhRON SEMA+PSI were tested, typically 10.0 and 2.5 nM (results are summarized in Table 20).
The binding affinities and kinetics of certain purified monoclonal antibodies were also determined. To further characterize certain antibodies, the surface plasmon resonance experiments described above were conducted using concentrations of rhRON SEMA+PSI between 0.3125 nM and 10.0 nM (a 2-fold serial dilution).

[2] = target: T2, human wild-type RON (cell surface) (human, UniProt Q04912 25-1400); test: FACS titration on PC3 cells, 4 C
T2 construct: whole, on cells; also called Human RON; wt RON
Experimental: (§3) Binding to cell surface human wild-type RON and the delta 160 RON variant by antibodies 07F01, Sh07F01-62, 29B06, and Sh29B06-78 was measured at 4° C., using Fluorescence Activated Cell Sorting (FACS). PC3 cells expressing the human wild-type RON, and HT29 cells expressing the delta 160 variant, were harvested using cell dissociation buffer (Invitrogen), washed twice with FACS buffer (PBS with 0.5% BSA), and treated 10 minutes with Cyto Q Antibody diluent and FC receptor block (Innovex Biosciences, Richmond, Calif.). Purified antibodies were diluted in FACS buffer over a concentration range from 0.01 nM to 25 nM. Cells were incubated with 100 μl of antibody for one hour, washed with FACS buffer three times, and incubated for 45 minutes with goat anti-mouse PE-conjugated antibody (Jackson ImmunoResearch Laboratories, West Grove, Pa.) or donkey anti-human PE-conjugated antibody (Jackson ImmunoResearch Laboratories, West Grove, Pa.). Cells were washed three times with FACS buffer, resuspended in 300 μl of FACS buffer, and analyzed using a Beckman Coulter Cytomics FC 500 FACS instrument. All four antibodies were compared in the same experiment.

[3] = target: T1, recombinant human RON SEMA and PSI …; test: SPR, Ab captured on anti-human IgG Fc, 25 C
[4] = target: T3, delta 160 RON variant (cell surface) (human, UniProt Q04912 25-1400); test: FACS titration on HT29 cells, 4 C
T3 construct: whole, on cells; Splice variant; also called delta 160 variant
Experimental: as §3

[5] = target: T1, recombinant human RON SEMA and PSI …; test: SPR, purified Ab captured on anti-human IgG Fc, 25 C
[6] = target: T1, recombinant human RON SEMA and PSI …; test: SPR, Ab captured on anti-human IgG Fc, 37 C
[7] = target: T1, recombinant human RON SEMA and PSI …; test: SPR, Ab captured on anti-human IgG Fc, 37 C, screening
Experimental: as §1, §2
Kinetic parameters were determined using the kinetic function of the BIAevaluation software (Biacore) with double reference subtraction. Kinetic parameters for each antibody, kₐ (association rate constant), kd (dissociation rate constant) and KD (equilibrium dissociation constant) were determined. Certain monoclonal antibodies were screened using cell culture media supernatant containing secreted antibody, and kinetic values of the monoclonal antibodies on rhRON SEMA+PSI at 37° C. are summarized in Table 20.

| Kd [1] [nM] | koff [1] [s⁻¹] | kon [1] [M⁻¹ s⁻¹] | Kd [2] [nM] | Kd [3] [nM] | koff [3] [s⁻¹] | kon [3] [M⁻¹ s⁻¹] | Kd [4] [nM] | Kd [5] [nM] | koff [5] [s⁻¹] | kon [5] [M⁻¹ s⁻¹] | Kd [6] [nM] | koff [6] [s⁻¹] | kon [6] [M⁻¹ s⁻¹] | Kd [7] [nM] | koff [7] [s⁻¹] | kon [7] [M⁻¹ s⁻¹] | Binder |
| --- | --- | --- | --- | --- | --- | --- | --- | --- | --- | --- | --- | --- | --- | --- | --- | --- | --- |
| 0.11 | 0.00011 | 1e+06 | 0.09 | 0.048 | 3.1e-05 | 680000 | 0.239 | 0.052 | 3.9e-05 | 750000 | 0.11 | 0.0001 | 960000 | – | – | – | Sh29B06-78 (antibody, human IgG1, kappa, V domains shown, Humanized, human IgG1/kappa: Hu29B06 Hv4-59 D27G T30S M48I I67V Y78F IgG1 + Sh29B06 Kv2-28 Kappa) VH: QVQLQESGPGLVKPSETLSLTCTVSGGSISSGYWNWIRKPPGKKLEYIGYISYSGKTYYNPSLKSRVTISRDTSKNQFSLKLSSVTAADTAVYYCARSKYDYAMDYWGQGTLVTVSS VL: DIVMTQSPLSLPVTPGEPASISCRASEIVDNFGISFMNWYLQKPGQSPQLLIYAASNQGSGVPDRFSGSGSGTDFTLKISRVEAEDVGVYYCQQSKEVPPTFGGGTKVEIKR |
| 0.25 | 0.00069 | 2.8e+06 | 0.043 | 0.085 | 0.00016 | 1.8e+06 | 0.118 | 0.085 | 0.00016 | 1.8e+06 | 0.25 | 0.00069 | 2.8e+06 | 0.36 | 0.0014 | 3.9e+06 | Sh07F01-62 (antibody, human IgG1, kappa, V domains shown, Humanized, human IgG1/kappa: Sh07F01 Hv3-48 D28T T60A L63V E65G IgG1 + HE L 07F01 Kv1-9 Kappa) VH: EVQLVESGGGLVQPGGSLRLSCAASGFTFSRHWMSWVRQAPGKGLEWVSEINPDSRTINYAPSVKGRFTISRDNAKNSLYLQMNSLRAEDTAVYYCARRVRIHYYGAMDSWGQGTTVTVSS VL: DIQLTQSQSFVSTSVGDRVTVTCRASQNVGSSLVWYQQKPGKSPKTLIYSASFLYSGVPSRFSGSGSGTEFTLTISSVQPEDFADYFCQQYNNYPLTFGGGTKVEIKR |
| – | – | – | – | 0.67 | 0.00068 | 1.2e+06 | – | – | – | – | 0.92 | 0.0025 | 7e+06 | – | – | – | RON8 (antibody, V domains shown) VH: EVQLVESGGGLVQPGGSLRLSCAASGFTFSSYLMTWVRQAPGKGLEWVANIKQDGSEKYYVDSVKGRFTISRDNAKNSLNLQMNSLRAEDTAVYYCTRDGYSSGRHYGMDVWGQGTTVIVSS VL: EIVLTQSPATLSLSPGERATLSCRASQSVSRYLAWYQQKPGQAPRLLIYDASNRATGIPARFSGSGSGTDFTLTISSLEPEDFAVYYCQQRSNWPRTFGQGTKVEIKR |
